Assays:
[1] = biological target: BG505 DS-SOSIP.664 (gp140 trimer) (HIV (BG505)) (UniProt Q2N0S6); assay: SPR
[2] = biological target: human FcRn receptor (neonatal Fc receptor) (human) (UniProt P55899); assay: SPR

griffithsin (GRFT), sequence (P84801 whole entry): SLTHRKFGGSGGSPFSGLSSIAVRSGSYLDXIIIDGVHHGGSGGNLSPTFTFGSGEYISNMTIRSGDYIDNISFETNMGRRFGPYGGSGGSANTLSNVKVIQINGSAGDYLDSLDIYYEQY

Substance	koff [1] [s⁻¹]	kon [1] [M⁻¹ s⁻¹]	Kd [2] [nM]
griffithsin (GRFT) (from UniProt P84801 1-121) (natural protein)	0.0136	1.42e+07	
VRC01 (standard anti-HIV broadly neutralizing antibody)			78.2
